Test [1] concerns the target T1, Human plasma fibronectin (Fn) (human, UniProt P02751-9 32-2240, limits assumed).
T1 construct: It is treated as the same molecule; also called full-length Fn
Kind of test: ELISA, Fn on peptide-coated wells. A general note: An ELISA detects its analyte on a solid surface through an enzyme-linked reagent.

Test [2] addresses T1, Human plasma fibronectin (Fn). Kind of test: ELISAs with GST domain fusions and Fn.
Test [3] deals with T2, Fn gelatin-binding domain (GBD), 40 kDa fragment (human, UniProt P02751 291-630).
T2 construct: also called Fn-GBD
Kind of test: ELISA on GBD-coated wells, anti-GST detection.

Test [4] has as its target T3, Fn N-terminal domain (NTD), 30 kDa fragment (human, UniProt P02751 32-290).
T3 construct: domain: N-terminal domain (NTD), FN1 1-5; also called 30 kDa NTD; 30-kDa proteolytic fragment from human Fn
Description: ELISA on NTD-coated wells, anti-GST detection.

In another test the target is T4, Ovalbumin (UniProt P01012 2-386).
T4 construct: also called ovalbumin (negative control)
T4 sequence: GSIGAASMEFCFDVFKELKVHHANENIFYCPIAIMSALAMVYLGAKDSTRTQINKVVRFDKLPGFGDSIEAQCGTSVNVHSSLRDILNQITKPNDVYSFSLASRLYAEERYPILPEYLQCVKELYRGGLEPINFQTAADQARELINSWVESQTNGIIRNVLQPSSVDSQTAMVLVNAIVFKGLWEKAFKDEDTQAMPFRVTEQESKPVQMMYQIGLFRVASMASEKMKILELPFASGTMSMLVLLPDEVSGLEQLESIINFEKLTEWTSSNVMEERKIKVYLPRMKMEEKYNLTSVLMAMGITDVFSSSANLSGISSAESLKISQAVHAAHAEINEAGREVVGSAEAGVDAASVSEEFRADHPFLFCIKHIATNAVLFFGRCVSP
Description: ELISA on ovalbumin-coated wells, anti-GST detection.

For test [5], the target named is T2, Fn gelatin-binding domain (GBD), 40 kDa …. Kind of test: ELISA, GST fusion on GBD-coated wells (FIG. 22).
Test [6] has as its target Bovine serum albumin (BSA) (bovine, UniProt P02769 25-607). Description: ELISA on BSA-coated wells, anti-GST detection.

T1 sequence (P02751 other isoform, or with tags, fused parts or gaps limits assumed): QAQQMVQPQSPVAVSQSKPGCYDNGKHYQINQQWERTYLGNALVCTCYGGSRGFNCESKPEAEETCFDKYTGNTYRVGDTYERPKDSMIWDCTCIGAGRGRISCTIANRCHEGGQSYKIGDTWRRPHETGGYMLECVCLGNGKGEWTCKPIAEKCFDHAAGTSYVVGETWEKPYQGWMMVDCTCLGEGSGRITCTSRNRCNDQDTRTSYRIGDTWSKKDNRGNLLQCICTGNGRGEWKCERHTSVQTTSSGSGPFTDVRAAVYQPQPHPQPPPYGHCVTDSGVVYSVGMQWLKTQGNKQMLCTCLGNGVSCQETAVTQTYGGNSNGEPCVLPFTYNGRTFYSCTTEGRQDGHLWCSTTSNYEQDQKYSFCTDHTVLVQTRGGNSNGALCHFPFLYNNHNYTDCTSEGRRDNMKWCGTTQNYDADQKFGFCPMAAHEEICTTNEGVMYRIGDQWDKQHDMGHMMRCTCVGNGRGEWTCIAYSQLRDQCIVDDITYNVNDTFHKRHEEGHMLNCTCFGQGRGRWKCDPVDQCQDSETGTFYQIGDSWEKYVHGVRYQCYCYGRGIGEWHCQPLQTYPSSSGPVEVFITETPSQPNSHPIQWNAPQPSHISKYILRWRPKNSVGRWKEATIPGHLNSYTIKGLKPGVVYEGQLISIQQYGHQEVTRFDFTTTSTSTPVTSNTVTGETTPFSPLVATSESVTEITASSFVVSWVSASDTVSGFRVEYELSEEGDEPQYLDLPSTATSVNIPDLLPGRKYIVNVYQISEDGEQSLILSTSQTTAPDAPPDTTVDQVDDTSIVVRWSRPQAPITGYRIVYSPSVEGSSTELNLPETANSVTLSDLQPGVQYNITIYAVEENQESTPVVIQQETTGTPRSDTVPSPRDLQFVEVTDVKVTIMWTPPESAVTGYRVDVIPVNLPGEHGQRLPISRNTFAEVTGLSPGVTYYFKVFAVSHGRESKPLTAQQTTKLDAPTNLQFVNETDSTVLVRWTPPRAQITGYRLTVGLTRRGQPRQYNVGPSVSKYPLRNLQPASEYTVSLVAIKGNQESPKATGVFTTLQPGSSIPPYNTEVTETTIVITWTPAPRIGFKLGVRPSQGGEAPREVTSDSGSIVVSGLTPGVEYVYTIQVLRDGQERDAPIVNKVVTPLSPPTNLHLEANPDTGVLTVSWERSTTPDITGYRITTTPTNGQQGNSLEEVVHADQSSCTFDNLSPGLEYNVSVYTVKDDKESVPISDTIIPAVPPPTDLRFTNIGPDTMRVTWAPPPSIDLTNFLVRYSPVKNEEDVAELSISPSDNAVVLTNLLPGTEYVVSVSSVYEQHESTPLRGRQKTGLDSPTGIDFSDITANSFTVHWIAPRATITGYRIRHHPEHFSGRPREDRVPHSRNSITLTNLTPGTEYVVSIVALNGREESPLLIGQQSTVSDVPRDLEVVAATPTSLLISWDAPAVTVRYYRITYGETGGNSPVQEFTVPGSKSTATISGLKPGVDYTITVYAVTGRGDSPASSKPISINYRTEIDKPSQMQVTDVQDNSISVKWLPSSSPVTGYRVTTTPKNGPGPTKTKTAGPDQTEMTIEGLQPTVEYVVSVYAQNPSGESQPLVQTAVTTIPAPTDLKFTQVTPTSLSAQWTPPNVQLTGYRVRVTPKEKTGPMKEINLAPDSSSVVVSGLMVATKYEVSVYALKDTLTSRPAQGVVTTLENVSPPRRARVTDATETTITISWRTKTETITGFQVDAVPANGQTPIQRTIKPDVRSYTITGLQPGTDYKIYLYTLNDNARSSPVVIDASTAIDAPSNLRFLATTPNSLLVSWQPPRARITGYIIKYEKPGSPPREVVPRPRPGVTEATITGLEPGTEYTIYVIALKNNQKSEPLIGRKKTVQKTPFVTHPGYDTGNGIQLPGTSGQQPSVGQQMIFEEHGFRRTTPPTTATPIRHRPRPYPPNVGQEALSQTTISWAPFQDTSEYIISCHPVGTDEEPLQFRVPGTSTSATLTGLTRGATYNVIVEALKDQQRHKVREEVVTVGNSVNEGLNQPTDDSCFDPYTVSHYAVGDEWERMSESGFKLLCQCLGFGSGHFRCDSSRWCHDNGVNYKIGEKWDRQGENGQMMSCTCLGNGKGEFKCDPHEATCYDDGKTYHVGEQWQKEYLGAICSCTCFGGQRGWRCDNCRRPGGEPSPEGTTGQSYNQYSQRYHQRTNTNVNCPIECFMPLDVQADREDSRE
T2 sequence (P02751 291-630 limits assumed): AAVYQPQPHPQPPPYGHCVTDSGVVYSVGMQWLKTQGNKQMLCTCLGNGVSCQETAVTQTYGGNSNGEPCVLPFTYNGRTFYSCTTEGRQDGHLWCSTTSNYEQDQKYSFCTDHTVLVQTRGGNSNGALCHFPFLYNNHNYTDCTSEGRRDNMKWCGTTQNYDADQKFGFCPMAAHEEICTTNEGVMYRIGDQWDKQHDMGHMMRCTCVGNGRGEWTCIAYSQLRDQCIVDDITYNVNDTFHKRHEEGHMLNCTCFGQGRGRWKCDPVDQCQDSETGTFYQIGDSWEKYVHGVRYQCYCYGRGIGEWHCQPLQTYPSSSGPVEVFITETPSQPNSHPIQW
T3 sequence (P02751 32-290 limits assumed): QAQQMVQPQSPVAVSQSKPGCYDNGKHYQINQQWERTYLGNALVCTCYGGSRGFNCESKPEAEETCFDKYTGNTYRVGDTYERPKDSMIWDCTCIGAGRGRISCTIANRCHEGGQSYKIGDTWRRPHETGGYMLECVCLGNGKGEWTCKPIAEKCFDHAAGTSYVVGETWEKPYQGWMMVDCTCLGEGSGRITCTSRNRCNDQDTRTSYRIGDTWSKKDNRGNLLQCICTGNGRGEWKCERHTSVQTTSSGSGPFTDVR
Sequence of Bovine serum albumin (BSA) (P02769 25-607 limits assumed): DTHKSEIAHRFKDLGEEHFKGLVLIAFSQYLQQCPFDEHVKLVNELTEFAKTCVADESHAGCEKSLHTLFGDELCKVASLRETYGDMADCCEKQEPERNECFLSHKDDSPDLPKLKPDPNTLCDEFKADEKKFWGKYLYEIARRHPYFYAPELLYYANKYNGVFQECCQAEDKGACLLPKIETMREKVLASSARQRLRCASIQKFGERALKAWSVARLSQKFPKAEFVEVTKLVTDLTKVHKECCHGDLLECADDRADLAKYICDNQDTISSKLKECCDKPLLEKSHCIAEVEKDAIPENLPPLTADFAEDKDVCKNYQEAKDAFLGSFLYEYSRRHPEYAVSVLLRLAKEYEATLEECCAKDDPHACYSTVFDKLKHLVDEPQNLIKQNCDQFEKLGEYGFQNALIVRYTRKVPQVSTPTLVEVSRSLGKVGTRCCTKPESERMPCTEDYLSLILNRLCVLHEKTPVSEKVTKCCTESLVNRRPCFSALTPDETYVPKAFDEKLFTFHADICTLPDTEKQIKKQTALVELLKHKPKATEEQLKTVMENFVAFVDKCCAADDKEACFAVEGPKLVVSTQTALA

For the molecule DSYIIERTKGDDKEFKKIAEVKNRLNAEYI (Synthetic 30mer of FlpA-D2) [FlpA peptide P3 (D165-I194)], the binding result in test [1] was “no binding (tested: Fn up to 20 µg/ml)”. Still for that read-out and setting: next, FVQAVTNLPNRIKLIWR (Synthetic peptide) [FlpA peptide P7 (F141-R157)]: “no binding”.

B1: CadF peptide FRLS- (aa118-133) (peptide)
peptide: YDNKSGGFGHYGAGVK
notes: Synthetic negative control peptide; also called CadF FRLS^-
With B1, the binding result in test [1] is “no binding”. Still for that read-out and setting: the same measure for KKIAEVKNRLNAEYIDSDLKPNENSSYRII (Synthetic 30mer of FlpA-D2) [FlpA peptide P4 (K180-I209)]: “no binding”.

B2: FlpA-D3-GST (aa232-410) (other)
chain: PPQVEHLSASTDGSSKIILTWDAPTYEDFSYYKVYSTSSSFLPFSVLAKTDKNSYEDIVEGAGKSKYYKVTMVDKDGLESPMPKDGVEGKTLGNPLAPSIILAQSTSEGINLEWSDNDTRAVEYEVRRYGGEQNAVFKGIKEKRLKDVKALPGVEYSYEVIAIDSAGLRSEPSSKVKAA
notes: not shown: glutathione S-transferase (GST) tag of vector pGEX-5x-1, N-terminal
As to B2, the binding result in test [2] is “no binding”; in test [3], “no binding (tested: up to 1000 nM)”.

B3: FlpA-D2-GST (aa135-226) (other)
chain: RLEAVPFVQAVTNLPNRIKLIWRPHPDFRVDSYIIERTKGDDKEFKKIAEVKNRLNAEYIDSDLKPNENSSYRIIAVSFNGIKSGSSQVVSS
notes: also called FlpA domain 2; not shown: glutathione S-transferase (GST) tag of vector pGEX-5x-1, N-terminal
Regarding B3, the binding result in test [4] is listed as “no binding (tested: up to 1000 nM)”; with Ovalbumin it was “no binding (tested: up to 1000 nM)”; in test [5], “binds”.

B4: FlpA-GST (aa35-410) (other)
chain: PAVNESLPKVESLKSLSDMSNIAFEWEPLYNENIKGFYLYRSSDENPDFKLVGTIKDKFQTHYVDTKLEPGTKYRYMMKSFNEQGQISEDGKVIEVSTAPRLEAVPFVQAVTNLPNRIKLIWRPHPDFRVDSYIIERTKGDDKEFKKIAEVKNRLNAEYIDSDLKPNENSSYRIIAVSFNGIKSGSSQVVSSTSKALPPQVEHLSASTDGSSKIILTWDAPTYEDFSYYKVYSTSSSFLPFSVLAKTDKNSYEDIVEGAGKSKYYKVTMVDKDGLESPMPKDGVEGKTLGNPLAPSIILAQSTSEGINLEWSDNDTRAVEYEVRRYGGEQNAVFKGIKEKRLKDVKALPGVEYSYEVIAIDSAGLRSEPSSKVKAA
notes: also called full-length FlpA-GST; FlpA full-length; not shown: glutathione S-transferase (GST) tag of vector pGEX-5x-1, N-terminal
In the case of B4, the binding result is recorded as “no binding (tested: up to 1000 nM)” in test [4], “no binding (tested: up to 1000 nM)” with Ovalbumin and “no binding” in test [6].

B5: FlpA-D1-GST (aa35-132) (other)
chain: PAVNESLPKVESLKSLSDMSNIAFEWEPLYNENIKGFYLYRSSDENPDFKLVGTIKDKFQTHYVDTKLEPGTKYRYMMKSFNEQGQISEDGKVIEVST
notes: as for B2
On to B5, for which the binding result is listed as “no binding” in test [2] and “no binding (tested: up to 1000 nM)” in test [3].

B6: FlpA peptide P5 (D195-V224) (peptide)
peptide: DSDLKPNENSSYRIIAVSFNGIKSGSSQVV
notes: Synthetic 30mer of FlpA-D2; Used as a negative control in later ELISAs
For B6, in test [1], the binding result is reported as “no binding”.

The record behind these values is patent US20120183570A1 (WASHINGTON STATE UNIVERSITY, published 2012).
